Experimental data as given in the supplement of paper PMC10567573.

B1: FAM46C (parent)
chain: VRSRLEEAGIKVHDVRLNGSAAGH
B2: TRAF3IP2 (parent)
chain: FMEKRNQWLVSQLSAASPDTGHDS

Variants of: B1
Experiment: protein stability index of a GFP-peptide fusion (GPS, HEK-293T) (PSI 1-6); higher = more stable
Details: c terminus: a fixed tail appended
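Further: lentivirally expressed fusions sorted by FACS into six bins by GFP to DsRed ratio, PSI derived from sequencing read proportions per bin multiplied by bin number.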

Variant | protein stability index
R16K | 2.49
N18Q | 1.96
S3P | 4.33
A21D | 3.13
E6H | 2.9
H24E | 3.66
G9P | 3.67
L17F | 2.47
V15N | 3.62
G23E | 2.3
L17P | 2.6
E6W | 1.64
K11N | 3.82
V15K | 3.44
E6N | 3.54
R4P | 4.24
H24P | 2.76
L5N | 4.03
K11S | 3.76
V12R | 4.44
A8E | 4.46
E6Y | 2.1
I10F | 2.12
H13N | 2.74
V15F | 3.57
K11A | 3.94

Variant | protein stability index
G19M | 1.83
V15H | 4.22
G19A | 2.19
G9H | 4.57
G23C | 1.64
N18Y | 1.62
V15P | 3.65
E6S | 2.7
A8R | 1.96
H13K | 2.02
D14C | 2.33
D14W | 1.62
H13I | 1.03
G9R | 3.88
V12G | 4.04
H13G | 4.18
S20T | 1.56
V15C | 2.42
A22Q | 2.1
A21S | 2.32
V15A | 4.24
R4W | 2.33
L17K | 4.53
R4K | 2.27
H13W | 2.02
V1A | 3.16

Variant | protein stability index
V12W | 2.77
R2W | 2.28
L5R | 4
A22I | 2.74
H24D | 2.7
E7S | 2.5
S3T | 1.68
R4A | 1.2
N18D | 2.81
A22S | 2.17
V1L | 1.33
V15S | 3.35
E7F | 2.49
R4E | 4.73
E6D | 3.09
V15R | 3.75
A21C | 1.73
R16D | 4.37
V12L | 2.56
L17V | 2.67
L17C | 2.61
G19I | 3.83
R16F | 2.25
G9I | 1.44
H24A | 3.06
G9L | 2.26

Variant | protein stability index
L17Q | 4.23
L5T | 4.59
K11C | 2.73
H13R | 2.32
R4S | 3
H13P | 4.08
L17R | 3.52
A21K | 4.25
D14P | 4.54
N18C | 2.64
E7W | 1.99
S3Y | 1.53
H13Q | 2.42
A22M | 2.66
G19F | 2.44
G23H | 2.85
R2V | 2.13
N18M | 3.59
K11V | 2.36
H13T | 1.86
H13Y | 1.25
I10S | 3.9
R2C | 2.3
R4C | 2.72
G23R | 2.38
A21W | 1.56

Variant | protein stability index
H13S | 1.19
V12K | 4.25
R16H | 2.54
L5C | 3.68
R4Y | 1.81
E7I | 2.48
S20F | 1.35
V1H | 4.02
V12F | 3.04
R16Y | 2.64
D14I | 1.29
A8T | 3.2
G9T | 2.97
R2E | 3.85
H24N | 3.78
G23L | 1.64
D14M | 1.79
V1M | 2.6
A22Y | 1.94
A8H | 3.12
K11F | 1.51
S20L | 2
S20C | 2.45
A22F | 1.25
V1S | 4.18
G9D | 3.89

Variant | protein stability index
K11T | 4.08
G23T | 3.09
S20P | 1.95
V15L | 2.76
A21P | 1.8
N18P | 3.12
A22V | 3.25
H13E | 4.06
K11G | 3.13
A8Y | 1.13
V12Q | 4.06
G19E | 3.77
G23N | 2.55
L5G | 4.21
I10P | 4.56
S20H | 2.16
A22W | 2.68
I10G | 4.5
G9Y | 2.51
A21T | 2.51
E6T | 2.44
E6I | 2.54
V12S | 3.93
S20Q | 2.63
R4T | 3.71

Variants of: B2
Experiment: as above
Details: c terminus: a fixed tail appended

Variant | protein stability index
F1A | 4.91
F1C | 3.98
F1D | 5.05
F1E | 4.77
F1G | 4.26
F1H | 4.84
F1I | 3.72
F1K | 3.71
F1L | 3.88
F1M | 3.56
F1N | 4.36
F1P | 3.95
F1Q | 4.88
F1R | 4.48
F1S | 4.37
F1T | 4.2
F1V | 4.55
F1W | 3.17
F1Y | 2.84
M2C | 2.94
M2D | 3.06
M2E | 4.75
M2F | 3.6
M2H | 1.58
M2I | 1.25
M2K | 4.28

Variant | protein stability index
M2L | 2.46
M2N | 3.29
M2P | 1.42
M2Q | 3.27
M2R | 3.56
M2S | 2.2
M2T | 2.55
M2W | 3.41
M2Y | 2.97
E3A | 3
E3C | 1.58
E3D | 2.24
E3F | 2.94
E3H | 1.71
E3I | 2.32
E3K | 2.91
E3L | 2.75
E3M | 2.28
E3N | 1.97
E3P | 1.93
E3Q | 2.27
E3R | 1.05
E3S | 1.77
E3T | 3.83
E3V | 1.95
E3W | 1.81

Variant | protein stability index
E3Y | 3.02
K4A | 1.71
K4D | 3
K4E | 3.69
K4F | 2.35
K4G | 1.89
K4H | 2.16
K4I | 2.6
K4L | 2.26
K4M | 2.51
K4N | 2.38
K4P | 2.36
K4Q | 2.57
K4R | 2.54
K4S | 2.24
K4T | 2.52
K4W | 1.3
K4Y | 2.17
R5A | 1.97
R5C | 2.25
R5D | 2.99
R5E | 3.5
R5F | 1.83
R5G | 1.71
R5H | 2.62
R5I | 1.68

Variant | protein stability index
R5K | 2.38
R5L | 1.79
R5M | 2.94
R5N | 1.98
R5P | 1.36
R5Q | 2.67
R5S | 2.28
R5T | 2.16
R5V | 1.97
R5W | 3.1
R5Y | 1.89
N6A | 2.24
N6C | 1.77
N6D | 2.73
N6G | 3.08
N6H | 2.05
N6I | 1.42
N6K | 2.42
N6L | 1.51
N6M | 2.06
N6P | 3.03
N6Q | 1.91
N6R | 2.44
N6S | 2.2
N6T | 1.83
N6V | 2.02

Variant | protein stability index
N6W | 1.29
N6Y | 1.56
Q7A | 1.02
Q7C | 1.87
Q7D | 3.31
Q7E | 2.72
Q7H | 2.26
Q7I | 2.35
Q7K | 3.36
Q7M | 1.8
Q7N | 2.65
Q7P | 1.58
Q7R | 2.98
Q7S | 1.64
Q7T | 1.79
Q7V | 1.81
Q7W | 2.86
Q7Y | 2.88
W8A | 4.75
W8C | 4.71
W8D | 5.06
W8E | 4.74
W8F | 3.95
W8G | 5.09
W8H | 4.43
W8I | 4.25

Variant | protein stability index
W8K | 4.57
W8L | 4.45
W8M | 4.72
W8N | 5.08
W8P | 4.58
W8Q | 4.63
W8R | 4.68
W8S | 4.93
W8T | 5.2
W8V | 4.79
W8Y | 4.21
L9A | 2.19
L9C | 2.41
L9D | 4.31
L9E | 4.27
L9F | 2.73
L9G | 3.34
L9H | 3.82
L9I | 2.9
L9K | 2.7
L9M | 2.36
L9N | 3.44
L9P | 3.83
L9Q | 3.03
L9R | 2.08
L9S | 3.15

Variant | protein stability index
L9T | 2.44
L9V | 1.71
L9Y | 2.9
V10A | 3.61
V10C | 1.99
V10D | 4.18
V10E | 4.34
V10F | 1.29
V10G | 3.14
V10H | 3.38
V10I | 2.12
V10K | 3.41
V10L | 2.29
V10M | 2.74
V10N | 3.46
V10P | 2.46
V10Q | 2.93
V10R | 3.28
V10S | 3.5
V10T | 3.21
V10Y | 2.5
S11A | 1.94
S11C | 2.22
